Drawing on patent US20070212390A1, this text covers activity in VEGFR-3 bioassay (Ba/F3 cell survival and proliferation, tritiated-thymidine incorporation) and activity in VEGFR-2 bioassay (Ba/F3 cell survival and proliferation, tritiated-thymidine incorporation) for one molecule.

Test [1] addresses chimeric receptor consisting of the extracellular domain of human VEGFR-3 and the cytoplasmic domain of the erythropoietin receptor, on Ba/F3 cells (human), P35916. As to the kind of experiment: cell-based or functional assay.
Test [2] addresses chimeric receptor consisting of the extracellular domain of mouse VEGFR-2 and the cytoplasmic domain of the erythropoietin receptor, on Ba/F3 cells (mouse), P35918. As to the kind of experiment: cell-based or functional assay.

chimeric receptor consisting of the extracellular domain of human VEGFR-3 and the cytoplasmic domain of the erythropoietin receptor, on Ba/F3 cells (human), P35916, sequence (P35916 25-775 limits assumed, change not shown, form in doubt): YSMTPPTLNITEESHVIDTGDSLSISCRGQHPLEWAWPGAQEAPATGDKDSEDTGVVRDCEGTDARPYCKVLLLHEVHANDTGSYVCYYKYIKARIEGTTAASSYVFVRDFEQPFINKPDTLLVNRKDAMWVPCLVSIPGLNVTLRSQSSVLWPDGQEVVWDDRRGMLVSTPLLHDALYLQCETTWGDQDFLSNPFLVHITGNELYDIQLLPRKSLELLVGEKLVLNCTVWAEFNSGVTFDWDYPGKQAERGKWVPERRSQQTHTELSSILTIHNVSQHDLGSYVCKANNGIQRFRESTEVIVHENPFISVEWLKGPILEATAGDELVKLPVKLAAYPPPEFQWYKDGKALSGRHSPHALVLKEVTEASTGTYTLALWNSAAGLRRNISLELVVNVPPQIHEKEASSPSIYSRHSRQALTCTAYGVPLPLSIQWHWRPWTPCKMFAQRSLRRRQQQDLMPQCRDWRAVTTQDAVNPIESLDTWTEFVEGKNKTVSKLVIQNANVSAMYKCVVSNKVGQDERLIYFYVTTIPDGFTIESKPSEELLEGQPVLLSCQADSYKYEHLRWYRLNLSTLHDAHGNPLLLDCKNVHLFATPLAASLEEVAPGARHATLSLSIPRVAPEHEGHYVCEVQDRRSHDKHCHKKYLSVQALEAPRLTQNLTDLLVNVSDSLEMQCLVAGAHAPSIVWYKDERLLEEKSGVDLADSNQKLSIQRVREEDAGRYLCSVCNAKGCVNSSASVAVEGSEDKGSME
chimeric receptor consisting of the extracellular domain of mouse VEGFR-2 and the cytoplasmic domain of the erythropoietin receptor, on Ba/F3 cells (mouse), P35918, sequence (P35918 20-762 limits assumed, change not shown, form in doubt): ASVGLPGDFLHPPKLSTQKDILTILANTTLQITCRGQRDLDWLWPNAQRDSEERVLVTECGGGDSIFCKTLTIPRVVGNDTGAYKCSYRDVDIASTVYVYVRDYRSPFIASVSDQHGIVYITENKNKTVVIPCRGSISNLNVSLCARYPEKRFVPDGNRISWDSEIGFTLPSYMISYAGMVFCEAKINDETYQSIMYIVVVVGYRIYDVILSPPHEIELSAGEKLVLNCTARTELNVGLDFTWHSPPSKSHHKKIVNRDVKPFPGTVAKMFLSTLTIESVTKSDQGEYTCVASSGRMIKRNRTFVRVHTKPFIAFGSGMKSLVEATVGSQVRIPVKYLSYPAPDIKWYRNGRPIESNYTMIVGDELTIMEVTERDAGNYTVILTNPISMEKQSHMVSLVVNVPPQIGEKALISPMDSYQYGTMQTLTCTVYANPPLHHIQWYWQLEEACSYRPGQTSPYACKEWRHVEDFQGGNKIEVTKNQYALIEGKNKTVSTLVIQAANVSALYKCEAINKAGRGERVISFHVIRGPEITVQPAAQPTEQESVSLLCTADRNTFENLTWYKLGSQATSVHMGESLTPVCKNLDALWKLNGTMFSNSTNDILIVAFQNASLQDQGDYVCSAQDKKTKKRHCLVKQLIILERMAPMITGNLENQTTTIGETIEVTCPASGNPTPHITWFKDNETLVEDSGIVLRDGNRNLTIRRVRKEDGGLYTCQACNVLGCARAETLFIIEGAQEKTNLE

B1: VEGF-D ΔN.IISS (human VEGF-D with R204,205S point mutations and lacking the N-terminal propeptide), O43915 87-354 (ligand)
chain: ARQDYKDDDDKTRFAATFYDIETLKVIDEEWQRTQCSPRETCVEVASELGKSTNTFFKPPCVNVFRCGGCCNEESLICMNTSTSYISKQLFEISVPLTSVPELVPVKVANHTGCKCLPTAPRHPYSIISSSIQIPEEDRCSHSKKLCPIDMLWDSNKCKCVLQEENPLAGTEDHSHLQEPALCGPHMMFDEDRCECVCKTPCPKDLIQHPKNCSCFECKESLETCCQKHKLFHPDTCSCEDRCPFHTRPCASGKTACAKHCRFPKEKRAAQGPHSRKNP
B1 returned an activity in VEGFR-3 bioassay (Ba/F3 cell survival and proliferation, tritiated-thymidine incorporation) in test [1] of 70 fold. The same molecule came in with an activity in VEGFR-2 bioassay (Ba/F3 cell survival and proliferation, tritiated-thymidine incorporation) in test [2] of 70 fold.
